These results are taken from the RNAGym collection of RNA variant scans (doi:10.7554/elife.90254).

B1: LINE1-mini (parent)
chain: GGCAGAGCUCAACACAGCGUGGCAAAGUGGCUGUGGCUAGACUGCC

The variants in the data set derive from B1. Put plainly: self-cleavage, relative activity (ratio to wild type); higher = more cleavage; in vitro, sequencing; the parent is a self-cleaving ribozyme.
Consider GGCAGAGCUCAACACAUCGUGGCAAAGUGGCUGUGGCUAGACUGCC, for which the self-cleavage came to 0.23. For GGCAGAGCUCAACACAUCGUGGCAAAGUGGCUGUGGCUAGGCUGCC, the self-cleavage turned out to be 0.08. For the variant GGCAGAGCUCAACACAUCGUGGCAAAGUGGCUGUGGCUAGCCUGCC, the self-cleavage turned out to be 0.1. As for GGCAGAGCUCAACACAUCGUGGCAAAGUGGCUGUGGCUAGUCUGCC, the self-cleavage was 0.09. As to GGCAGAGCUCAACACAUCGUGGCUAAGUGGCUGUGGCUAGACUGCC, the self-cleavage was determined as 0.25. Regarding GGCAGAGCUCAACACAUCGUGGCGAAGUGGCUGUGGCUAGACUGCC, the self-cleavage worked out at 0.09. Take GGCAGAGCUCAACACAUCGUGGCCAAGUGGCUGUGGCUAGACUGCC: the self-cleavage is 0.11.

For GGCAGAGCUCAACACAUCGUGGCAAAGUGGCUGUCGCUAGACUGCC, the self-cleavage was 0.18.

GGCAGAGCUCAACACAUCGUGGCAAAGUGGCUGUAGCUAGACUGCC: the self-cleavage is 0.07. As to GGCAGAGCUCAACACAUCGUGGCAAAGUGGCUGUUGCUAGACUGCC, the self-cleavage is 0.07. Consider GGCAGAGCUCAACACAUCGUGGCAGAGUGGCUGUGGCUAGACUGCC, for which the self-cleavage amounted to 0.07. As for GGCAGAGCUCAACACAUCGUGGCACAGUGGCUGUGGCUAGACUGCC, the self-cleavage came to 0.12. GGCAGAGCUCAACACAUCGUGGCAUAGUGGCUGUGGCUAGACUGCC: the self-cleavage stood at 0.12. For GGCAGAGCUCAACACAUCGUGGCAAAGUGGCUGUGGUUAGACUGCC, the self-cleavage turned out to be 0.05. The value for GGCAGAGCUCAACACAUCGUGGCAAAGUGGCUGUGGAUAGACUGCC was 0.1; that for GGCAGAGCUCAACACAUCGUGGCAAAGUGGCUGUGGGUAGACUGCC was 0.03.

With GGCAGAGCUCAACACACCGGGGCAAAGUGGCUGUGGCUAGACUGCC, the self-cleavage was found to be 0.14.

With GGCAGAGCUCAACACACCGAGGCAAAGUGGCUGUGGCUAGACUGCC, the self-cleavage stood at 0.55. For the variant GGCAGAGCUCAACACACCGCGGCAAAGUGGCUGUGGCUAGACUGCC, the self-cleavage worked out at 0.66.

On to GGCAGAGCUCAACACACCGUGGCAAAGUGGCUGUGCCUAGACUGCC, for which the self-cleavage came to 0.04. As to GGCAGAGCUCAACACACCGUGGCAAAGUGGCUGUGUCUAGACUGCC, the self-cleavage is 0.08. Regarding GGCAGAGCUCAACACACCGUGGCAAAGUGGCUGUGACUAGACUGCC, the self-cleavage is 0.09. Regarding GGCAGAGCUCAACACAUCGUCGCAAAGUGGCUGUGGCUAGACUGCC, the self-cleavage turned out to be 1.31. The value for GGCAGAGCUCAACACAUCGUAGCAAAGUGGCUGUGGCUAGACUGCC was 0.3. In the case of GGCAGAGCUCAACACAUCGUUGCAAAGUGGCUGUGGCUAGACUGCC, the self-cleavage amounted to 0.36. As for GGCAGAGCUCAACACAUCGUGGCAAAGUGGCUGUGGCUAAACUGCC, the self-cleavage was 0.05. GGCAGAGCUCAACACAUCGUGGCAAAGUGGCUGUGGCUAUACUGCC: the self-cleavage was found to be 0.06. As for GGCAGAGCUCAACACAUCGUGGCAAAGUGGCUGUGGCUACACUGCC, the self-cleavage amounted to 0.17. For the variant GGCAGAGCUCAACACAUCGUGGCAAAUUGGCUGUGGCUAGACUGCC, the self-cleavage stood at 0.35. For the variant GGCAGAGCUCAACACAUCGUGGCAAACUGGCUGUGGCUAGACUGCC, the self-cleavage was 0.22.

On to GGCAGAGCUCAACACAUCGUGGCAAAAUGGCUGUGGCUAGACUGCC, for which the self-cleavage turned out to be 0.38. With GGCAGAGCUCAACACAUCGUGGCAAAGUGUCUGUGGCUAGACUGCC, the self-cleavage was determined as 0.16. As to GGCAGAGCUCAACACAUCGUGGCAAAGUGACUGUGGCUAGACUGCC, the self-cleavage was determined as 0.82. For GGCAGAGCUCAACACAUCGUGGCAAAGUGCCUGUGGCUAGACUGCC, the self-cleavage turned out to be 0.59. The value for GGCAGAGCUCAACACACCGUGGCAAAGUGGCUGGGGCUAGACUGCC was 0.1; that for GGCAGAGCUCAACACACCGUGGCAAAGUGGCUGAGGCUAGACUGCC was 0.07; that for GGCAGAGCUCAACACACCGUGGCAAAGUGGCUGCGGCUAGACUGCC was 0.09. As to GGCAGAGCUCAACACACCGUGGCAAAGUGGCUUUGGCUAGACUGCC, the self-cleavage stood at 0.06. Take GGCAGAGCUCAACACACCGUGGCAAAGUGGCUCUGGCUAGACUGCC: the self-cleavage was 0.03.

For the variant GGCAGAGCUCAACACACCGUGGCAAAGUGGCUAUGGCUAGACUGCC, the self-cleavage was 0.06. Turning to GGCAGAGCUCAACACACCGUGGCAAAGUGGCUGUGGCUAGACUACC, the self-cleavage was 0.11.

Turning to GGCAGAGCUCAACACACCGUGGCAAAGUGGCUGUGGCUAGACUCCC, the self-cleavage is 0.05. GGCAGAGCUCAACACACCGUGGCAAAGUGGCUGUGGCUAGACUUCC: the self-cleavage is 0.07. With GGCAGAGCUCAACACAUCGUGGCAAAGUGGCUGUGGCUAGACUACC the figure was 0.07. The value for GGCAGAGCUCAACACAUCGUGGCAAAGUGGCUGUGGCUAGACUUCC was 0.06; that for GGCAGAGCUCAACACAUCGUGGCAAAGUGGCUGUGGCUAGACUCCC was 0.05. Turning to GGCAGAGCUCAACACAUCGUGGCAAAGUGGCUGUGGCUAGACUGCU, the self-cleavage stood at 0.16. With GGCAGAGCUCAACACAUCGUGGCAAAGUGGCUGUGGCUAGACUGCA, the self-cleavage came to 0.13.

On to GGCAGAGCUCAACACAUCGUGGCAAAGUGGCUGUGGCUAGACUGCG, for which the self-cleavage was 0.12. GGCAGAGCUCAACACAUCGUGGCAAAGUGGCUGUGGCUAGAUUGCC: the self-cleavage turned out to be 0.06.

In the case of GGCAGAGCUCAACACAUCGUGGCAAAGUGGCUGUGGCUAGAAUGCC, the self-cleavage is 0.05. On to GGCAGAGCUCAACACAUCGUGGCAAAGUGGCUGUGGCUAGAGUGCC, for which the self-cleavage turned out to be 0.06.

Consider GGCAGAGCUCAACACAUUGUGGCAAAGUGGCUGUGGCUAGACUGCC, for which the self-cleavage was 0.12. For GGCAGAGCUCAACACAUGGUGGCAAAGUGGCUGUGGCUAGACUGCC, the self-cleavage worked out at 0.12. As for GGCAGAGCUCAACACAUAGUGGCAAAGUGGCUGUGGCUAGACUGCC, the self-cleavage was determined as 0.18.

GGCAGAGCUCAACACAUCGUGGCAAAGUUGCUGUGGCUAGACUGCC: the self-cleavage stood at 0.43.
